{
  "source": "paper PMC10343182",
  "about": "“Homogeneous Electrochemical Aptamer Sensor Based on Two-Dimensional Nanocomposite Probe and Nanochannel Modified Electrode for Sensitive Detection of Carcinoembryonic Antigen”",
  "key": {"[1]": {"biological_target": "carcinoembryonic antigen (CEA) (UniProt P06731 35-685)", "sequence (P06731 35-685)": "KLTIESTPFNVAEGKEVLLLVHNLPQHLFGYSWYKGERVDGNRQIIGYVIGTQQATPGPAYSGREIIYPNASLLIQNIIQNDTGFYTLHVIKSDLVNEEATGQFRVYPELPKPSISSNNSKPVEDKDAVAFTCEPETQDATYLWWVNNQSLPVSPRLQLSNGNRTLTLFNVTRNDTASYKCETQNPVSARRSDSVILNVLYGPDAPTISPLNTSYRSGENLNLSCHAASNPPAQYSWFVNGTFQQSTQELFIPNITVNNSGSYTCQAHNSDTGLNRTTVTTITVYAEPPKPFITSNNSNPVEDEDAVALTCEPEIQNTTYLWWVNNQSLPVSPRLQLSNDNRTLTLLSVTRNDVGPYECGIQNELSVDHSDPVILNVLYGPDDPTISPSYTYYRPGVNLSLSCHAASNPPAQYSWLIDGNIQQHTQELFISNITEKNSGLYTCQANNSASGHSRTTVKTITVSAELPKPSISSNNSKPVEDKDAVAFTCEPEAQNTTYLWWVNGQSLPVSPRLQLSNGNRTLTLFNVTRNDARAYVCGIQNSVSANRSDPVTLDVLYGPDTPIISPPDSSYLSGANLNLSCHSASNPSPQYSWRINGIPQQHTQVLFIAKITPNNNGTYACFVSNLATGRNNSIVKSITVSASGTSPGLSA", "experiment": "electrochemical sensor (DPV/CV), aptamer release from graphene oxide; Ru(NH3)6 3+, GO; sensor LOD 14 fg/mL, linear 60 fg/mL-100 ng/mL (not Kd); PBS (sodium phosphate) 0.01 M, pH 7.4; GO 0.1 mg/mL, aptamer 1 uM, Ru(NH3)6 3+ 50 uM (optimum); temperature not stated", "details": "protein: commercial"}, "[2]": {"biological_target": "T1, alpha fetoprotein (AFP) (UniProt P02771 19-609)", "T1 sequence": "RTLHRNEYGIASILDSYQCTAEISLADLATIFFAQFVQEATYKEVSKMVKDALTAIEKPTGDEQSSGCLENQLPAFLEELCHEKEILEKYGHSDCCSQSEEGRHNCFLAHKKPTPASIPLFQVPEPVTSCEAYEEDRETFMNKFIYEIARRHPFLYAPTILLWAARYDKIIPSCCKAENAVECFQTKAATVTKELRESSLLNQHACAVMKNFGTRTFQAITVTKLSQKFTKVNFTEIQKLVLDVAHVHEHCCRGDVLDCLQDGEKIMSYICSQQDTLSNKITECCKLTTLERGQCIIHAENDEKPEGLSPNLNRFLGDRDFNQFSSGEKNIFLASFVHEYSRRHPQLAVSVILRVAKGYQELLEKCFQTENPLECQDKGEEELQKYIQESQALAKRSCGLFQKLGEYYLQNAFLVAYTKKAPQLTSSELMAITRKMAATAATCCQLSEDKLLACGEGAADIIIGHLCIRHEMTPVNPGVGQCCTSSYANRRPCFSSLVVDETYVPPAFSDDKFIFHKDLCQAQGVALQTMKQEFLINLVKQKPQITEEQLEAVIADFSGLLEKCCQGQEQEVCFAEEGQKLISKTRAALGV", "experiment": "electrochemical sensor (DPV), aptamer release from graphene oxide; Ru(NH3)6 3+, GO; PBS (sodium phosphate) 0.01 M, pH 7.4; GO 0.1 mg/mL, aptamer 1 uM, Ru(NH3)6 3+ 50 uM (optimum); temperature not stated", "details": "protein: commercial"}, "[3]": {"biological_target": "cancer antigen 153 (CA153) (UniProt P15941 24-1097)", "sequence (P15941 24-1097)": "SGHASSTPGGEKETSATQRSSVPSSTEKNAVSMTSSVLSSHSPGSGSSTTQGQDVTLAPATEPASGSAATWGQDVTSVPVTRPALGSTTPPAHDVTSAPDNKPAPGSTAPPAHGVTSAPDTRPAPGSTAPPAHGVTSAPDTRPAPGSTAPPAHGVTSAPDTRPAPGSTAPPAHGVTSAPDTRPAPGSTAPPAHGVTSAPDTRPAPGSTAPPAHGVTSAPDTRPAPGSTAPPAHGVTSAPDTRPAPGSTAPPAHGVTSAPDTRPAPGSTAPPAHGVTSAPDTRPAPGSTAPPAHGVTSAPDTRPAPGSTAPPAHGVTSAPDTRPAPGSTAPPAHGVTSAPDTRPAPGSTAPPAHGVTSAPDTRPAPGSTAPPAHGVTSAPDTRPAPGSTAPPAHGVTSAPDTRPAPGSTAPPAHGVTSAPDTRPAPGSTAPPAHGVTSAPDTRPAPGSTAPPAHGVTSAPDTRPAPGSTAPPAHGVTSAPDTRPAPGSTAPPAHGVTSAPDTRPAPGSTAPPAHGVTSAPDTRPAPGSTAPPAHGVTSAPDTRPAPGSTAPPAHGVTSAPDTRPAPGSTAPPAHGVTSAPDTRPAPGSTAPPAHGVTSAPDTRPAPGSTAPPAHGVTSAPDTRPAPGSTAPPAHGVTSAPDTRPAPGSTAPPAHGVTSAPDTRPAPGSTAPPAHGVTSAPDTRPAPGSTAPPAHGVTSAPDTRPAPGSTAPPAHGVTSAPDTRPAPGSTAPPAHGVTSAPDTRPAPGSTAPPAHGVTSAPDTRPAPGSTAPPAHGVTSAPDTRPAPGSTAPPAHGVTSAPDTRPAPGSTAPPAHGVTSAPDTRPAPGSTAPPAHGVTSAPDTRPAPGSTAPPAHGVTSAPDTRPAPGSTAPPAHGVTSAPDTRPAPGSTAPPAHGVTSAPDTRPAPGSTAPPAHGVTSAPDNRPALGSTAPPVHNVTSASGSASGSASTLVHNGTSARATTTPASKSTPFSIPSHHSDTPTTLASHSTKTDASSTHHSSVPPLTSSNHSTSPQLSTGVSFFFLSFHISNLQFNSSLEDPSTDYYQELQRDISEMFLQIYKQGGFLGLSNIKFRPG", "experiment": "electrochemical sensor (DPV), aptamer release from graphene oxide; Ru(NH3)6 3+, GO; PBS (sodium phosphate) 0.01 M, pH 7.4; GO 0.1 mg/mL, aptamer 1 uM, Ru(NH3)6 3+ 50 uM (optimum); temperature not stated", "details": "protein: commercial"}, "[4]": {"biological_target": "prostate specific antigen (PSA) (UniProt P07288 25-261)", "sequence (P07288 25-261)": "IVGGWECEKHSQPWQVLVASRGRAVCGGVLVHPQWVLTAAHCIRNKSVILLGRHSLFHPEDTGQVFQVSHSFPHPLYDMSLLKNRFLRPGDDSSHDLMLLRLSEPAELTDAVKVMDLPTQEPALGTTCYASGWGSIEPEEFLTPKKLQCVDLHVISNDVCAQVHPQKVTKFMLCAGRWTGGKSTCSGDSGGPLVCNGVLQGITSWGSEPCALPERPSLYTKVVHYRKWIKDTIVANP", "experiment": "electrochemical sensor (DPV), aptamer release from graphene oxide; Ru(NH3)6 3+, GO; PBS (sodium phosphate) 0.01 M, pH 7.4; GO 0.1 mg/mL, aptamer 1 uM, Ru(NH3)6 3+ 50 uM (optimum); temperature not stated", "details": "protein: commercial"}, "[5]": {"biological_target": "T2, C-reactive protein (CRP) (UniProt P02741 19-224)", "T2 sequence": "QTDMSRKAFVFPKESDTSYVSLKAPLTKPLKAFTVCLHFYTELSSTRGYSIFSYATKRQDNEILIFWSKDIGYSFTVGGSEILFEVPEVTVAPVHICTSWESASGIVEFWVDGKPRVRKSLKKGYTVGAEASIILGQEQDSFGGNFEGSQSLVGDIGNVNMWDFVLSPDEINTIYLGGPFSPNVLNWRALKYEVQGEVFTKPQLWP", "experiment": "electrochemical sensor (DPV), aptamer release from graphene oxide; Ru(NH3)6 3+, GO; PBS (sodium phosphate) 0.01 M, pH 7.4; GO 0.1 mg/mL, aptamer 1 uM, Ru(NH3)6 3+ 50 uM (optimum); temperature not stated", "details": "protein: commercial; chain copies: 5"}},
  "data": [
    {"binder": "ATACAGCTTCAATT (ssDNA, 3'-NH2)", "note": "[CEA aptamer (Apt)]", "values": [
      {"measurement": "binding result", "setting": "[1]", "result": "binds"},
      {"measurement": "binding result", "setting": "[2]", "result": "no binding"},
      {"measurement": "binding result", "setting": "[3]", "result": "no binding"},
      {"measurement": "binding result", "setting": "[4]", "result": "no binding"},
      {"measurement": "binding result", "setting": "[5]", "result": "no binding"}
    ]}
  ]
}
